{"source": "patent US20090158456", "key": {"[1]": {"test_system": "recombinant GST-CcHCT fusion protein (pGTPc103a_HCT)"}, "[2]": {"test_system": "recombinant GST-CcHQT fusion protein (pGTPc103a_HQT)"}}}
{"substance": "AcTEV protease", "values": [{"measurement": "SDS PAGE gel electrophoresis and coomassie staining after AcTEV digestion", "setting": "[1]", "value": "generate a smaller polypeptide with the expected molecular weight of the full length proteins from each of the GST-tagged \"precursor\" proteins"}, {"measurement": "SDS PAGE gel electrophoresis and coomassie staining after AcTEV digestion", "setting": "[2]", "value": "generate a smaller polypeptide with the expected molecular weight of the full length proteins from each of the GST-tagged \"precursor\" proteins"}]}
